Reference: paper PMC5167779

Columns and labels:
[1] = biological target: XfYgiT, antitoxin of the toxin-antitoxin system of Xylella fastidiosa subsp. pauca strain 9a5c (Xylella fastidiosa subsp. pauca strain 9a5c); experiment: AUC
[2] = biological target: XfYgiT, antitoxin of the toxin-antitoxin system of Xylella fastidiosa subsp. pauca strain 9a5c (Xylella fastidiosa subsp. pauca strain 9a5c); experiment: SEC
[3] = biological target: XfYgiT, antitoxin of the toxin-antitoxin system of Xylella fastidiosa subsp. pauca strain 9a5c (Xylella fastidiosa subsp. pauca strain 9a5c); experiment: ITC
[4] = biological target: XfYgiT, antitoxin of the toxin-antitoxin system of Xylella fastidiosa subsp. pauca strain 9a5c (Xylella fastidiosa subsp. pauca strain 9a5c); experiment: SEC; […], sodium phosphate buffer ([…]

Substance | stoichiometry N (mol/mol (printed as 2:2)) [1] | stoichiometry N (mol/mol (printed as 1:1)) [2] | dH [3] [kcal/mol] | stoichiometry N (mol/mol (printed as 1:1)) [3] | stoichiometry N [1] | stoichiometry N [4]
XfMqsR, toxin of the toxin-antitoxin system of Xylella fastidiosa subsp. pauca strain 9a5c (natural protein) | 1 | 1 | -8.61 | 1 | – | –
XfYgiT, antitoxin of the toxin-antitoxin system of Xylella fastidiosa subsp. pauca strain 9a5c (natural protein) | – | – | – | – | 2 | 2
